Laboratory results taken from patent US20150118286A1.

Experiments:
[1] = target: Human tyrosinase (human), P14679; experiment: cell-based or functional assay
[2] = target: Mushroom tyrosinase (mushroom), C7FF04; experiment: cell-based or functional assay

Chain of Human tyrosinase (human), P14679 (P14679 19-529): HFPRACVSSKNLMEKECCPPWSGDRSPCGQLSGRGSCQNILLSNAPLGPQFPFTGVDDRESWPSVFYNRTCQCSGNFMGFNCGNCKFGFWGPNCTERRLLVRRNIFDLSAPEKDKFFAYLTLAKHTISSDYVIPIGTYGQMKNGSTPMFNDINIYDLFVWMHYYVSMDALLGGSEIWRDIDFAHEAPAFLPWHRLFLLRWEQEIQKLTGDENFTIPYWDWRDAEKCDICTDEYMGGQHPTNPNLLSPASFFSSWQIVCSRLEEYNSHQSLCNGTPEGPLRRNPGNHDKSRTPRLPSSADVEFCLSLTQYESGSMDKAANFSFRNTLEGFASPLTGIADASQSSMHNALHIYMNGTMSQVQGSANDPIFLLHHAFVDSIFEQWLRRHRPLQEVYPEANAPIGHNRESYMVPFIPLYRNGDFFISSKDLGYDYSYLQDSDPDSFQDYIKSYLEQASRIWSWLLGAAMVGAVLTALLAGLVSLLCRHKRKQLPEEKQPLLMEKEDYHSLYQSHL

reduction of total melanin content in MNTI cells (3 days, peptide at twice the IC50) [1] [%]	IC50 [µM], mushroom tyrosinase inhibition (dopachrome OD 475 nm, L-tyrosine substrate) [2] [µM]	Binder
45	–	RRWWRRYY [P16 peptide]
38	–	RRRYWYYR [P17 peptide]
41	–	RRYWYWRR [P18 peptide]
–	1120	RRFVCC (modifications not checked) [P15 peptide]
